Experimental findings from US20050153894A1, “p21 peptides” (Cyclacel Limited, priority 1999, published 2005) are described below.

In test [1] the target is CDK2/cyclin A (Homo sapiens, UniProt P20248). As to the kind of experiment: CDK2/cyclin A kinase assay, substrate pRb(773-928). As to conditions: for Relative activity Kinase Inhibition: pRb substrate, [ATP] = 100 μM. It is filed as biochemical. The source says:
Reactions were stopped on ice, followed by filtration through p81 filterplates (Whatman Polyfiltronics, Kent, UK).

Test [2] concerns the target Cyclin A (Homo sapiens, UniProt P20248). As to the kind of experiment: Cyclin A binding assay, immobilised biotinyl-Ahx-[…]NH2. The protocol:
This was added to each well (100 μL). The plate was incubated for 1 h at room temperature with constant shaking. The plate was washed once quickly with TBS/BSA buffer (200 μL), followed by three more washes with TBS/BSA buffer (200 μL) for 5 min each. Serial dilutions of test peptides were prepared in a new plate (50 μL in each well). Cyclin A was diluted to 5 μg/50 μL with TBS/BSA buffer and this was then added to each well (50 μL). The solutions were mixed thoroughly with a pipette (5-6 times), before being incubated for 30 min at room temperature. This reaction mixture was then transferred to the biotinylated peptide: streptavidin-coated plate and incubated for 1 h at room temperature with constant shaking. The plate was washed once quickly with TBS/BSA buffer (200 μL), followed by three more washes with TBS/BSA buffer (200 μL) for 5 min each. The cyclin A antibody (Santa Cruz polyclonal) solution was diluted 1:200 with TBS/BSA buffer and this was then added to each well of the plate (100 μL. The plate was incubated for 1 h at room temperature with constant shaking. The plate was washed once quickly with TBS/BSA buffer (200 μl), followed by three more washes with TBS/BSA buffer (200 μL) for 5 min each. The anti-rabbit secondary antibody (goat anti-rabbit IgG peroxidase conjugate) was diluted 1:10,000 with TBS/BSA and this was then added to each well of the plate (100 μL). The plate was incubated for 1 h at room temperature with constant shaking. The plate was washed once quickly with TBS/BSA buffer (200 μL), followed by three more washes with TBS/BSA buffer (200 μL) for 5 min each. To each well was added the TMB-ELISA reagent (Pierce 1-Step™ Turbo TMB-ELISA; 100 μL) and the plate incubated for 1 min with constant shaking. The reaction was then quenched by the addition of 2 M aqueous H2SO4 (100 μL, each well). The UV absorbance of the each solution was measured spectrophotometrically at 450 nm. IC50 values were calculated from dose-response curves.

The mark [3] stands for this setting: Phe159 substitutions, relative to H-His-Ala-Lys-Arg-Arg-Leu-Ile-Phe-NH2 (=1).
The mark [4] stands for this setting: His152 substitutions, relative to H-His-Ala-Lys-Arg-Arg-Leu-Ile-Phe-NH2 (=1).
Setting [5] is: Lys154 substitutions, relative to H-His-Ala-Lys-Arg-Arg-Leu-Ile-Phe-NH2 (=1).
Where [6] appears, read: Ile158 substitutions, relative to H-His-Ala-Lys-Arg-Arg-Leu-Ile-Phe-NH2 (=1).
[7] abbreviates: Leu157 substitutions, relative to H-His-Ala-Lys-Arg-Arg-Leu-Ile-Phe-NH2 (=1).
The mark [8] stands for this setting: Ala153 substitutions, relative to H-His-Ala-Lys-Arg-Arg-Leu-Ile-Phe-NH2 (=1).
Setting [9] is: Arg155 substitutions, relative to H-His-Ala-Lys-Arg-Arg-Leu-Ile-Phe-NH2 (=1).
The mark [10] stands for this setting: relative to H-His-Ala-Lys-Arg-Arg-Leu-Ile-Phe-NH2 (SEQ ID No. 36) = 1, CDK2/cyclin A kinase assay.
Where [11] appears, read: relative to SEQ ID No. 36 = 1, competitive cyclin A binding, immobilised biotinyl-Ahx-His-Ala-Lys-Arg-Arg-Leu-Ile-Phe-NH2.

Numbered stars: 1 amine (or outer) side, 2 acyl side, 3 side chain; on linkers, the order of the positions; unused ones are H or OH. Square brackets hold non-standard residues; d marks the D form. Ends that are not written are not given here. Dhp = Dehydrophenylalanine, O=C(/C(=C/c1ccccc1)N[*:1])[*:2]; 1Nal = N[C@@H](Cc1cccc2ccccc12)C(=O)O; hPhe = N[C@@H](CCc1ccccc1)C(=O)O; Cha = N[C@@H](CC1CCCCC1)C(=O)O; Phg = N[C@H](C(=O)O)c1ccccc1; Tle = CC(C)(C)[C@H](N)C(=O)O; Nle = CCCC[C@H](N)C(=O)O; Nva = CCC[C@H](N)C(=O)O; dPse = not defined here; Abu = CC[C@H](N)C(=O)O

Sequence of Cyclin A (P20248 whole entry): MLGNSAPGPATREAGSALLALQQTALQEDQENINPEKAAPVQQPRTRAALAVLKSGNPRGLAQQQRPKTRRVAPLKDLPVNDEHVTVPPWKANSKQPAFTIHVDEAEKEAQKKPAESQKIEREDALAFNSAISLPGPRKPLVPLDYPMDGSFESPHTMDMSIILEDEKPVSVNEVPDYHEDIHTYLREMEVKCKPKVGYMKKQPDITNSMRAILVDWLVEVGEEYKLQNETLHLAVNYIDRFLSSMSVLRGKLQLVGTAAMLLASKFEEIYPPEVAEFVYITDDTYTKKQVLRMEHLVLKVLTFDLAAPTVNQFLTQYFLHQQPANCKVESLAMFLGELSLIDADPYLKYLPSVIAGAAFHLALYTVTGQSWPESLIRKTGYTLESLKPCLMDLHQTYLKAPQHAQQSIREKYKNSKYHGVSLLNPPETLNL

Regarding “H-His-Ala-Lys-Arg-Arg-Leu-Ile-Cha-NH2 (H-HAKRRLI[Cha]-NH2; SMILES CC[C@H](C)[C@H](NC(=O)[C@H](CC(C)C)NC(=O)[C@H](CCCNC(=N)N)NC(=O)[C@H](CCCNC(=N)N)NC(=O)[C@H](CCCCN)NC(=O)[C@H](C)NC(=O)[C@@H](N)Cc1c[nH]cn1)C(=O)N[C@@H](CC1CCCCC1)C(N)=O)”, the “Relative activity Kinase Inhibition” value in test [1] (setting [3]) is recorded as less than 0.1. The “Relative activity Cyclin A Binding” value in test [2] (setting [3]) is less than 0.1.
As to “H-Dab-Ala-Lys-Arg-Arg-Leu-Ile Phe-NH2 (XAKRRLIF; N-terminal Dab, C-terminal amide)”, the “Relative activity Kinase Inhibition” value in test [1] (setting [4]) is recorded as 5. In addition, the “Relative activity Cyclin A Binding” value in test [2] (setting [4]) was 0.4.
On to HAKRRLIK-NH2, for which the “Relative activity Kinase Inhibition” value in test [1] (setting [3]) was less than 0.1. In addition, the “Relative activity Cyclin A Binding” value in test [2] (setting [3]) is on record as less than 0.1.
As for “H-His-Ala-Abu-Arg-Arg-Leu-Ile Phe-NH2 (H-HA[Abu]RRLIF-NH2; SMILES CC[C@H](NC(=O)[C@H](C)NC(=O)[C@@H](N)Cc1c[nH]cn1)C(=O)N[C@@H](CCCNC(=N)N)C(=O)N[C@@H](CCCNC(=N)N)C(=O)N[C@@H](CC(C)C)C(=O)N[C@H](C(=O)N[C@@H](Cc1ccccc1)C(N)=O)[C@@H](C)CC)”, the “Relative activity Kinase Inhibition” value in test [1] (setting [5]) was found to be 0.8. The “Relative activity Cyclin A Binding” value in test [2] (setting [5]) stood at 0.2.
“H-Ala-Ala-Lys-Arg-Arg-Leu-Ile Phe-NH2 (H-AAKRRLIF-NH2)”: the “Relative activity Kinase Inhibition” value in test [1] (setting [4]) is on record as 1.8. Also, the “Relative activity Cyclin A Binding” value in test [2] (setting [4]) is 2.5.
For “H-His-Ala-Nle-Arg-Arg-Leu-Ile Phe-NH2 (H-HA[Nle]RRLIF-NH2; SMILES CCCC[C@H](NC(=O)[C@H](C)NC(=O)[C@@H](N)Cc1c[nH]cn1)C(=O)N[C@@H](CCCNC(=N)N)C(=O)N[C@@H](CCCNC(=N)N)C(=O)N[C@@H](CC(C)C)C(=O)N[C@H](C(=O)N[C@@H](Cc1ccccc1)C(N)=O)[C@@H](C)CC)”, the “Relative activity Kinase Inhibition” value in test [1] (setting [5]) was determined as 03. In test [2] (setting [5]), the “Relative activity Cyclin A Binding” value is given as 0.2.
With “H-Hse-Ala-Lys-Arg-Arg-Leu-Ile Phe-NH2 (XAKRRLIF; N-terminal Hse, C-terminal amide)”, the “Relative activity Kinase Inhibition” value in test [1] (setting [4]) is 2. For the same compound, in test [2] (setting [4]), the “Relative activity Cyclin A Binding” value is 2.
On to “H-His-Ala-Lys-Arg-Arg-Leu-Nle Phe-NH2 (H-HAKRRL[Nle]F-NH2; SMILES CCCC[C@H](NC(=O)[C@H](CC(C)C)NC(=O)[C@H](CCCNC(=N)N)NC(=O)[C@H](CCCNC(=N)N)NC(=O)[C@H](CCCCN)NC(=O)[C@H](C)NC(=O)[C@@H](N)Cc1c[nH]cn1)C(=O)N[C@@H](Cc1ccccc1)C(N)=O)”, for which the “Relative activity Kinase Inhibition” value in test [1] (setting [6]) is given as 0.4. Moreover, the “Relative activity Cyclin A Binding” value in test [2] (setting [6]) was found to be 0.3.
For “H-His-Ala-Arg-Arg-Arg-Leu-Ile Phe-NH2 (H-HARRRLIF-NH2)”, in test [1] (setting [5]), the “Relative activity Kinase Inhibition” value came to 5.7. The “Relative activity Cyclin A Binding” value in test [2] (setting [5]) came to 1.5.
As to “H-His-Ala-Lys-Arg-Arg-1Nap-Ile Phe-NH2 (H-HAKRR[1Nal]IF-NH2; SMILES CC[C@H](C)[C@H](NC(=O)[C@H](Cc1cccc2ccccc12)NC(=O)[C@H](CCCNC(=N)N)NC(=O)[C@H](CCCNC(=N)N)NC(=O)[C@H](CCCCN)NC(=O)[C@H](C)NC(=O)[C@@H](N)Cc1c[nH]cn1)C(=O)N[C@@H](Cc1ccccc1)C(N)=O)”, the “Relative activity Kinase Inhibition” value in test [1] (setting [7]) is reported as less than 0.1. Moreover, the “Relative activity Cyclin A Binding” value in test [2] (setting [7]) is given as less than 0.1.
Turning to “H-His-Abu-Lys-Arg-Arg-Leu-Ile Phe-NH2 (H-H[Abu]KRRLIF-NH2; SMILES CC[C@H](NC(=O)[C@@H](N)Cc1c[nH]cn1)C(=O)N[C@@H](CCCCN)C(=O)N[C@@H](CCCNC(=N)N)C(=O)N[C@@H](CCCNC(=N)N)C(=O)N[C@@H](CC(C)C)C(=O)N[C@H](C(=O)N[C@@H](Cc1ccccc1)C(N)=O)[C@@H](C)CC)”, the “Relative activity Kinase Inhibition” value in test [1] (setting [8]) came out at 5. In addition, the “Relative activity Cyclin A Binding” value in test [2] (setting [8]) stood at 1.3.
In the same order, the values of “H-His-Gly-Lys-Arg-Arg-Leu-Ile Phe-NH2 (H-HGKRRLIF-NH2)” are 0.1 and 0.1.
For “H-His-Ala-Lys-Arg-Arg-Leu-Ile-Hof-NH2 (H-HAKRRLI[hPhe]-NH2; SMILES CC[C@H](C)[C@H](NC(=O)[C@H](CC(C)C)NC(=O)[C@H](CCCNC(=N)N)NC(=O)[C@H](CCCNC(=N)N)NC(=O)[C@H](CCCCN)NC(=O)[C@H](C)NC(=O)[C@@H](N)Cc1c[nH]cn1)C(=O)N[C@@H](CCc1ccccc1)C(N)=O)”, the “Relative activity Kinase Inhibition” value in test [1] (setting [3]) is recorded as less than 0.1. For the same compound, the “Relative activity Cyclin A Binding” value in test [2] (setting [3]) is less than 0.1.
Turning to “H-His-Ala-Lys-Arg-Arg-Leu-Nva Phe-NH2 (H-HAKRRL[Nva]F-NH2; SMILES CCC[C@H](NC(=O)[C@H](CC(C)C)NC(=O)[C@H](CCCNC(=N)N)NC(=O)[C@H](CCCNC(=N)N)NC(=O)[C@H](CCCCN)NC(=O)[C@H](C)NC(=O)[C@@H](N)Cc1c[nH]cn1)C(=O)N[C@@H](Cc1ccccc1)C(N)=O)”, in test [1] (setting [6]), the “Relative activity Kinase Inhibition” value is 0.2. The “Relative activity Cyclin A Binding” value in test [2] (setting [6]) is reported as 0.6.
In the case of “H-His-Ala-Lys-Nle-Arg-Leu-Ile Phe-NH2 (H-HAKHRLIF-NH2; not fully specified (residue 4); printed as H-His-Ala-Lys-Nle-Arg-Leu-Ile Phe-NH2)”, the “Relative activity Kinase Inhibition” value in test [1] (setting [9]) is reported as less than 0.1. For the same compound, in test [2] (setting [9]), the “Relative activity Cyclin A Binding” value is on record as less than 0.1.
Consider “H-Pya-Ala-Lys-Arg-Arg-Leu-Ile Phe-NH2 (XAKRRLIF; N-terminal Pya, C-terminal amide)”, for which the “Relative activity Kinase Inhibition” value in test [1] (setting [4]) is on record as less than 0.1. For the same compound, in test [2] (setting [4]), the “Relative activity Cyclin A Binding” value came out at 0.2.
With “111 (H-HAKRRLI[dPse]-OH; reading uncertain) [compound 111]”, the “Relative activity Kinase Inhibition” value in test [1] (setting [10]) is less than 0.1. Besides, the “Relative activity Cyclin A Binding” value in test [2] (setting [11]) worked out at 0.1.
Turning to “H-His-Phg-Lys-Arg-Arg-Leu-Ile Phe-NH2 (H-H[Phg]KRRLIF-NH2; not fully specified; printed as H-His-Phg-Lys-Arg-Arg-Leu-Ile Phe-NH2)”, the “Relative activity Kinase Inhibition” value in test [1] (setting [8]) is on record as less than 0.1. Besides, the “Relative activity Cyclin A Binding” value in test [2] (setting [8]) is given as less than 0.1.
Take “H-His-Bug-Lys-Arg-Arg-Leu-Ile Phe-NH2 (H-H[Tle]KRRLIF-NH2; SMILES CC[C@H](C)[C@H](NC(=O)[C@H](CC(C)C)NC(=O)[C@H](CCCNC(=N)N)NC(=O)[C@H](CCCNC(=N)N)NC(=O)[C@H](CCCCN)NC(=O)[C@@H](NC(=O)[C@@H](N)Cc1c[nH]cn1)C(C)(C)C)C(=O)N[C@@H](Cc1ccccc1)C(N)=O)”: the “Relative activity Kinase Inhibition” value in test [1] (setting [8]) worked out at 0.2. Further, the “Relative activity Cyclin A Binding” value in test [2] (setting [8]) was determined as 1.2.
`CC(=O)N[C@@H](CCCN=C(N)N)C(=O)N[C@@H](CCCN=C(N)N)C(=O)N[C@@H](CC(C)C)C(=O)N[C@@H](CC(N)=O)C(=O)N[C@@H](Cc1ccccc1)C(N)=O` [compound 378]: the results for the half-inhibitory concentration (IC50) in test [1] and in test [2] were 37.2 µM and 8.15 µM, respectively.
Consider “118 (H-HAKRRLI[Dhp]-OH; not fully specified) [compound 118]”, for which the “Relative activity Kinase Inhibition” value in test [1] (setting [10]) is 3.3. Further, the “Relative activity Cyclin A Binding” value in test [2] (setting [11]) worked out at 0.2.

For orientation: IC50 means the point on the concentration scale where inhibition reaches its midpoint. Read a high IC50 as weaker potency in that assay.
